Assay: yeast display, Sf9 membrane polyspecificity reagent, FACS + sequencing; frameworks hold sequencing errors
In short: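 Galactose induction of a Saccharomyces cerevisiae BJ5465 synthetic nanobody display library ran 36–48 hours. The cells were then stained for 1 hour at 4 °C with 10% biotinylated, detergent-solubilized Sf9 membrane reagent, pulled down on streptavidin microbeads and FACS-sorted into low and high (top ~1%) gates on expression and reagent-binding fluorescence. Labels for polyreactivity follow the gate of origin.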

Sequence: QVQLVESGGCIVQAGVSLRLSCSSSGRTFGYNAMGLYRNAPGKERELVAAINWSGASKYYADSVKGRFTISRDNAKNTVYLQMNSLKPEDTAVYYCAADYSYIYGFDYWGQGTQVTVSS
- polyreactivity (PSR sort gate): low polyreactivity

Sequence: QVQLVESGGGLVQAGGSLRLSCAASGLIFYRYAMGWYRQAPGKERELVAAISSGGSTYYADSVKGRFTISRDNAKNTVYLQMNSLKPEDTAVYYCADRTRVSPQIHIYRAYGYWGQGTQVTVSS
- polyreactivity (PSR sort gate): high polyreactivity

Sequence: QVQLVESGAGLVQAGGSLRSSCAASGSTFSGNAMGLYRQAPGKERELVAAISGRGGSTYYADSVKGRFTISRDNAKNSVYLQMNSLKPEDTAVYYCAKRRNTRGAYGYWGQGTQVTVSS
- polyreactivity (PSR sort gate): high polyreactivity

Sequence: QVQLVESGGGLFQAGGSLRLSCAASGFTFTRYAMGWYRQAPGKERELVATITKRGGSTYYADSVKGRFTISRDNAKNTVYLQMNRLKPEDTAVYYCAADGASRALYDYWGQGTQVTVSS
- polyreactivity (PSR sort gate): high polyreactivity

Sequence: QVQLVESGGGLVQVGGSLRLSCAASGGIFCGNSMGWYRQAPGKERDLVAAISWDASTYYEDTVKGRFTISRDNAMNTVYLQMNSLKPEDTAVYYCNADIPYYFVYDAYDYWGQGTQVNVSS
- polyreactivity (PSR sort gate): low polyreactivity

Sequence: QVQLVESGGGLVQAGGSLRLSCAASGRTFLSYAMGWYRQAPGKERELVATITRRGGSTYYADSVKGRFTISRDNAKNTVYLQMNSLKPEDTAVYYCAAYYRQYSSSEFGYWGQGTQVTVSS
- polyreactivity (PSR sort gate): high polyreactivity

Sequence: QVQLVESGGGLVQAGGSLRLSCAASGSIFSLYTMGWYRQAPGKERELVATIRSVGSTNYADSVKGRFTISRDNAKNTVYLQMNSLKPEDTAVYYCAAGWYYGVYYIYDYWGQGTQVNVSS
- polyreactivity (PSR sort gate): high polyreactivity

Sequence: QVQLVESGGGLVQAGGSLRLSCAASGFIMQYNAMGRYIQAPRKERELVAAITRSGVSTHYADSVKGRYTISRDNAKNTVYLQMISLKPEDTAVYYCARTGQSLYSRYYYWGQGTQVTVSS
- polyreactivity (PSR sort gate): low polyreactivity

Sequence: QVQLVESGGGLVQAGGSLRLSCSASGRTFYEYAMGWYIQAPGKERELVAGITSGGSTNYADSVKGRFTISRDNAKNTVYLQMNSLKPEDTAVYYCAATYWGYEYDYWGQGTQVTVSS
- polyreactivity (PSR sort gate): low polyreactivity

Sequence: QVQLVESGGGLVQAGGSLRLSCAAYGRTFYGYAMGWYRQAPGKEREFFAAITWRGGSTYYADSVKGRFSISRDNAKNNVFLQMNSLKPEDTAVYYCAADYRVYTRYGLRKFDYWGQCTQVTVSS
- polyreactivity (PSR sort gate): high polyreactivity

Sequence: QVQLVESGGGLVQAGGSLRLSCAASGSIFYVNTMGWYRQAPGKERELVAVIDYGGDSTYYADSVKGRFTISRDNAKNTVYLQMNSLKPEDTAVYYCAADAWLLPYNYWGQGTQVTVSS
- polyreactivity (PSR sort gate): low polyreactivity

Sequence: QVQLVESGGGLVQAGGSLRLSCAASGFTFGPYDMGWYRQAPGTERELVAAITDSSGSTHYADSVKGRFTLSRDNAKNTFYLQMNSLKPEDTAVYYCAADVSSRTTYDYWGQGTQVTVSS
- polyreactivity (PSR sort gate): low polyreactivity

Sequence: QVQLVESGGGLVQAGGSLRLSCAASGRTFFGYAMGWYRQAPGKERELVAAISRGGGRTYYADSVKGRFTISRDNAKNTVYLQMNSLKPEDTAVYYCNAVTFSFYLYDWGQGTQVTVSS
- polyreactivity (PSR sort gate): high polyreactivity

Sequence: QVQLVESGGCLVQAGGSLRLSFAASGSTLPYYSMGWYRHAPGKERELVAAITSSGGDTYYADSVKGRFTISRDIAKNTVYLQMNSLKPEDTAVYYCAKSFSARSTVRKLFYFAYDYWGQGTQVTVSS
- polyreactivity (PSR sort gate): low polyreactivity

Sequence: QVQLEESGGGLVQAGGSLRLTCAGSGRIFGIYAMGWYRQAPGKERQLVAAIRDSGSRTYYADSVKGRFTISRDNAKNTVYLQMNRLTPEDTAVYYCAARTYTYPYFGGYQYTYNYWGQGTQVTVSS
- polyreactivity (PSR sort gate): low polyreactivity

Sequence: QVQLVESGGGLVQAGGSLRLSCAASGRTFYGYAMGWYRQAPGKEREFVAAINWSGGTTYYADSVKGRFTISRDNAKNTVYLQMNSLKPEDTAVYYCAADYYRIRRWPGYYAYDYWGQGTQVTVSS
- polyreactivity (PSR sort gate): high polyreactivity

Sequence: QVQLVESGGGLVQAGGSLRLSCASSGSIFTGNVMGWYRQAPGKERELVAAISSRGGNTYYADSVKGRFTISRDNAKNTVYLQMNSLKPEDTAVYYCNKVKYTWYDWGQGTQVTVSS
- polyreactivity (PSR sort gate): high polyreactivity

Sequence: QVQLVESGGGLVQAGGSLRLSCAASGRTFSAYAMGWYRQAPGKERELVAAISRSGGRTYYADSVKGRFTISRDNAKNTVYLEMNSLKPEDTAVYYCNARNLRDNQCTYDYWGQGTQVTVSS
- polyreactivity (PSR sort gate): high polyreactivity

Sequence: QVQLVESGGGLVLAGGSLRLSCAASGSIFSLYAMGWYRQAPGKEREVVAALSRGGSTNYADSVKGRFTISRDTAKNTVYLQMNCLKPEDTAVYYSNAGFGVRRKHITVYTWYDYWGQGTQVTVSS
- polyreactivity (PSR sort gate): low polyreactivity

Sequence: QVQLVESGGGLVQAGGSLRLSCAASGRIFHTYGRRWSRQAPGKEREFVAAITWTGGSTYYADSVKGRFTISRDNAKNTFYLQMNSLKPEDTAVYYCAADYPRDIIGSMDYWGQGTQVTVSW
- polyreactivity (PSR sort gate): low polyreactivity

Sequence: QVQLVESGGGLVQAGGSLRLSCAASGFIFVHNAMGWYRQAPGKERELVATISRRGGSTYYADSVKGRFTISRDNAKNTVYLQMNILKPEDTAVYYCAARTYGYYLYDYWGQGTQVTVSS
- polyreactivity (PSR sort gate): high polyreactivity

Sequence: QVQLVESAGGLVQEGGSLRLICAASARTIVIYSMGWYRQAPGKEREFVAAISRSGGSTYYADSVKGRFTISRDNQKNTVYLQMNSLQPVDTAVYYCNTRTPYWFKSDYWGQGTQVTVSS
- polyreactivity (PSR sort gate): low polyreactivity

Sequence: QVQLVESGGRLVQAGGSLSLSCAASGRTFGGYNMGWYRQAPGKERELVAAINWSGTTYYADSVKGRFTISRDNAKNTVYLQMNSLKPVDTAVYYCAASLVSYYGLARDSVDYWGQGTQVTVSS
- polyreactivity (PSR sort gate): low polyreactivity

Sequence: QVQIVESGGRLVQAGGSLRLSCAASGNIFRYNAMGWYRQAPGKERELVAAITLSGGDTYYADSVKGRFTISRDNAKNIVYLQMNSLKPEDTAVYYCAKDPRSDYTDGMNYWGQGTQLTVSS
- polyreactivity (PSR sort gate): low polyreactivity

Sequence: QVQLVESGGGKVQAGGSLRLSCAASGRILHEYAMGWYRQAPGKERELVAAITFSGTSTYYADSVKGRFTISRDNAKNTVYLQMYSLKPEDTAVYYCAADTYGGSRDYWGQGTQVTVSS
- polyreactivity (PSR sort gate): low polyreactivity

Sequence: QVQLVESGGGLVQAGGSLRLSCAASGSNFTSYAMGWYRQAPGKERELVAAITRGGRTYYADSVKGRFTISRDNAKNTVYLQMNSLKPEDTAVFYCNAPGYRGYEYWGQGTQVTVSS
- polyreactivity (PSR sort gate): high polyreactivity

Sequence: QVQLVESGGGLVQAGGSLRLSCAASGSIFHYYAMGWYRQAPGKERELVAAISWSGGRTNYADSVKGRFTISRDNAKNTVYLQMNSLKPEDTAVYYCAAAERSYSGGGKIGKYYYWGQGTQVTVSS
- polyreactivity (PSR sort gate): high polyreactivity

Sequence: QVQLVESGGGLVQAGGSLRLSCAASGRIFYNYVMGWYRQAPGKERELVAAISSSGGSTYYADSVKGRFTISRDNAKNTVYLQMNSLKPEDTAVYYCGTTRRVPGEYWGQGTQVTVSS
- polyreactivity (PSR sort gate): high polyreactivity

Sequence: QVQLVESGGGLVQAGGSLRLSCAASGFTFPRYAMGWYRQAPGKERELVAAITSGDRTYYADSVKGRFTISRDNAKNTVYLQMNSLKPEDTAVYYCATSSRYRYWHRYDYWGLGTQVTVSS
- polyreactivity (PSR sort gate): high polyreactivity

Sequence: QVQLVESGGGLVQAGGSLRLSCAASGRIFFYNAMGWYRQAHGKERELVAAISARGDRTYYADSVKGRFTISRDNAKNTVYLQMNSLKPEDTAVYYCAADYYNYRYDYWGQGTQVTVSS
- polyreactivity (PSR sort gate): high polyreactivity

Sequence: QVQLVESGRGLVQAGGSLRLSCAASGSTFAPYTMGWYRQAPGKERELVAAISWNGGRTSYADSVKGRFTISRDNAKNTVYLQMNSLKPEDTAVYYCATRRIWTQSYDGGLYGYYYWGQGTQVTVSS
- polyreactivity (PSR sort gate): high polyreactivity

Sequence: QVQHVESGGGLVQAGGSLRLSCAASGSTFVQYAMGWYRQAPGKERELVAAIRGRGDSTYYADSVKGRFTISRDNAKNTVYLQMNSLKPEDTAVYYCAARGQGSRGMYYWGQGTQVTVSS
- polyreactivity (PSR sort gate): low polyreactivity

Sequence: QVQLVESGGGLVQAGGSLRLSCAASRFIFWSYAMGWYRQAPGKERELVAAISWRGGSTYYADSVKGRFTISRDNAKNTVYLQMNSLKPEDTAVYYCAAESYNGYDYWGQGTQVTVSS
- polyreactivity (PSR sort gate): high polyreactivity

Sequence: QVQLVESGGGLVQAGGSLRLSCAASGRIFRYYAMGWYRQAPGKERELVAVINWSGGSTYYADSVKGRFTISRDNAKNTVYFQMNSLKPEDTAVYYCNVYSVYPQFNYWGQGTQVTVSS
- polyreactivity (PSR sort gate): high polyreactivity

Sequence: QDQLVESGGGLVHAGGSLRLSCAASGSTFDRYALGWYRQAPVKERELVATITRSGSTNYADSVKGRFTISRDNAKNTVYLQMNSLKTEDTAVYYCAAYDRITRYDYWGQGTQVTVSS
- polyreactivity (PSR sort gate): high polyreactivity

Sequence: QVQLVESGGGLLQAGGSLRLSCAASGRIFGDYGMGWYRQAPGKERELVAAITDRGGTTYYADSVKGRFTISRDNAKKTVYLQMNSMKPEDNAVYYCNARQSDIFDYDYWGQGTQVTVSS
- polyreactivity (PSR sort gate): low polyreactivity

Sequence: QVQLVESGGGFVQAGGSLRLSCAASGSTFRYYAMGWYRQAPGTEREFVAAISWSGSSTYYADSVKGRFTISRDNAKNTVYLQMNSLKPEDTAVYYCAARYRYYGYDYWGQGTQVTVSS
- polyreactivity (PSR sort gate): high polyreactivity

Sequence: QVQLVESGGGLVQEGGSLRLSCAASGRTFAIYTMGCYRQAPGKERELVATNSGSAGNTYYADSVKGRYTISRDNAKNTVYLQMNSLIPEDTAVYYCAARQRKSRQIVLLDYWGQGTQVTVSS
- polyreactivity (PSR sort gate): high polyreactivity

Sequence: QVQLVESGGGLVQAGGSLRLSSAASGRIFYNYAMGWYRQAPGKERELVAAISVSGGSTYYADSVKGRFTISRDNAKNTVYLQMNSLKPEDTAVYYCAAGRGYTYNYWGQGSQVTVSS
- polyreactivity (PSR sort gate): high polyreactivity

Sequence: QVQLVESGGGLVQAGGSLRLSCAASGRIFPYYAMGWYRQAPGKERELVAAITTSGGSTYYADSVKGRFTISRDNAKNTVYLQMNSLKPEDTAVYYCARDLYYYSPYDEYDSWGQGTQVTVSS
- polyreactivity (PSR sort gate): low polyreactivity

Sequence: QDQLVESGGGLVQAGGSLRLSCAASGFTYEKYAMGSYRTAPGKERELVASISWSGGRTRYADSVMGRFTISRDNAKNTVYLQMNSLKPEDTAVYYCAARGAYKSAYNRNEYWGQGTQVTVSS
- polyreactivity (PSR sort gate): high polyreactivity

Sequence: QVQLVESGGGLVQAGGSLRLSCAASGSTFYYMGWSRQAPGKERELVAAITQSGGSTYYADSVKGRFTISRDNAKNTVYLQMNSLKPEDTAVYYCAARYASPRYKSKMDYWGQGTQVTVSS
- polyreactivity (PSR sort gate): high polyreactivity

Sequence: QVQLVESGGGLVQAGGSLRLSCAASGSTFKLNAMGWYRQAPGKERELLASISTGASTNYADSVKGRFTISLDNAKNTVYVQMNSLNPEDTAVYYCAAQYPFAGYYITQYEYDYWGQGTQVTVSS
- polyreactivity (PSR sort gate): low polyreactivity

Source: the nanobody polyreactivity screen of Harvey et al. (2022)
